Our source for the IC50 (read off the curve), IC50 (read off the curve), lower panel, 10 nM pKal and IC50 (read off the curve), upper panel, 1 nM pKal values is patent publication US20240218079A1, “PLASMA KALLIKREIN ANTIBODIES AND USES THEREOF” (Astria Therapeutics, Inc., priority 2021, published 2024).

In assay [1] the target is human plasma kallikrein (human) (UniProt P03952).
Assay [2] has the same target. This is another data set of the same source.

human plasma kallikrein (human), sequence (P03952 20-390 S143N limits assumed, chain 1 of 2): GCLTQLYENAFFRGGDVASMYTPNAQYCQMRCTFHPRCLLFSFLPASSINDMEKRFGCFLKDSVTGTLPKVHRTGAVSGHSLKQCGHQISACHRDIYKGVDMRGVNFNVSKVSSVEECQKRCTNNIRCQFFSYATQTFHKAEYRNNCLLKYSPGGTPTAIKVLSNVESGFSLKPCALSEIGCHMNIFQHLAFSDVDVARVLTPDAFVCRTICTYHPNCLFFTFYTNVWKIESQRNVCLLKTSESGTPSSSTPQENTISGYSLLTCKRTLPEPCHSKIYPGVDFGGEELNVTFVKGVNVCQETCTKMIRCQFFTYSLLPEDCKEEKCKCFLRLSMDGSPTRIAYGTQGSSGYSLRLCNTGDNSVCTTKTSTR
human plasma kallikrein (human), sequence (P03952 391-638 limits assumed, chain 2 of 2): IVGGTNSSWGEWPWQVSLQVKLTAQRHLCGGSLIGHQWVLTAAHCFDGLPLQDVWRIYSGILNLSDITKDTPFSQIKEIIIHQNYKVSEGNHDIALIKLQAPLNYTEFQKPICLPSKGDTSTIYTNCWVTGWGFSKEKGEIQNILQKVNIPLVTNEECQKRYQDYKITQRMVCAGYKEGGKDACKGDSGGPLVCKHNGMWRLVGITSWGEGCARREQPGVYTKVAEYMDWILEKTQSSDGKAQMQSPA

B1: C1inh (protein, UniProt P05155 23-500, looked up, species assumed)
Plasma protease C1 inhibitor: NPNATSSSSQDPESLQDRGEGKVATTVISKMLFVEPILEVSSLPTTNSTTNSATKITANTTDEPTTQPTTEPTTQPTIQPTQPTTQLPTDSPTQPTTGSFCPGPVTLCSDLESHSTEAVLGDALVDFSLKLYHAFSAMKKVETNMAFSPFSIASLLTQVLLGAGENTKTNLESILSYPKDFTCVHQALKGFTTKGVTSVSQIFHSPDLAIRDTFVNASRTLYSSSPRVLSNNSDANLELINTWVAKNTNNKISRLLDSLPSDTRLVLLNAIYLSAKWKTTFDPKKTRMEPFHFKNSVIKVPMMNSKKYPVAHFIDQTLKAKVGQLQLSHNLSLVILVPQNLKHRLEDMEQALSPSVFKAIMEKLEMSKFQPTLLTLPRIKVTTSQDMLSIMEKLEFFDFSYDLNLCGLTEDPDLQVSAMQHQTVLELTETGVEAAAASAISVARTLLVFEVQQPFLFVLWDQQHKFPVFMGRVYDPRA
In assay [1], B1 had an IC50 (read off the curve) of 3 nM. Moreover, in assay [2], the IC50 (read off the curve), lower panel, 10 nM pKal came to 1e-08 M and the IC50 (read off the curve), upper panel, 1 nM pKal was 4e-09 M.
